One may read the Kd as the concentration at which binding is half-saturated. Low values mean higher affinity, high ones lower affinity.

Here are results for two molecules from paper PMC10023680 (2023).

B1: RhoG (residues 1-184) (domain or fragment)
chain: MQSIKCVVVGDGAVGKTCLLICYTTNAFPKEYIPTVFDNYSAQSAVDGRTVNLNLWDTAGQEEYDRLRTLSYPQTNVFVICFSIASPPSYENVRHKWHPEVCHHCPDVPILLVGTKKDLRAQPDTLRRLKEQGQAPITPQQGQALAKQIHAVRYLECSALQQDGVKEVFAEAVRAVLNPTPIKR

Experiment in all cases: SPR
(In general: Surface plasmon resonance follows binding to a sensor surface in real time, without labels.)

Test [1] concerns the target GST-tagged ELMO1-RBD (residues 1-113) K20E (human, UniProt Q92556 1-113, K20E).
Test [2] concerns the target GST-tagged ELMO1-RBD (residues 1-113) Y18A (human, UniProt Q92556 1-113, Y18A).
The test “RhoG (residues 1-184)” deals with B1.

RhoG (residues 1-184), sequence (P84095 1-184): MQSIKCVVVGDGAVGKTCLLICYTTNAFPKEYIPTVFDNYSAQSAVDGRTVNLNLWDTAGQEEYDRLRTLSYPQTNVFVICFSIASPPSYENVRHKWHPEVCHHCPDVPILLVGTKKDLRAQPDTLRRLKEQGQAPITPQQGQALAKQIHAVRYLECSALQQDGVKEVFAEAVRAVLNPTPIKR

Take B1: the Kd in test [1] was determined as 18.2 µM; in test [2], 19.3 µM.

B2: GST-tagged ELMO1-RBD (residues 1-113), wild-type (domain or fragment)
chain: MPPPADIVKVAIEWPGAYPKLMEIDQKKPLSAIIKEVCDGWSLANHEYFALQHADSSNFYITEKNRNEIKNGTILRLTTSPAQNAQQLHERIQSSSMDAKLEALKDLASLSRD
In the test with RhoG (residues 1-184), B2 came in with a Kd of 8.4 µM. That is a single-digit micromolar value.
